In the supplement of paper PMC9233669:
Fewer inactive variants are shown than the library holds.

Columns and labels:
biotinyl-Phe-oxazolone = test: self-aminoacylation, catalytic enhancement (BFO) (fold over background); higher = more active; k-Seq, kA / k0A0; sequences stand for … in GGGAAUGGAUCCACAUCUACGAAUUC…UUCACUGCAGACUUGACGAAGCUG
How it was run: (§1)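 Working in 50 μL HEPES/NaCl/KCl/MgCl2/CaCl2 buffer with 5% acetonitrile at pH 6.9–7.0, mutagenized RNA pools (0.43 μM; 21-nt variable region) were reacted with 2–1250 μM of each biotinyl-aminoacyl-oxazolone for 90 minutes at room temperature. Streptavidin capture followed, with quantification by triplicate qPCR and Illumina sequencing. Catalytic enhancement is reported as median kA over the uncatalyzed rate, the low-activity peak of a bimodal Gaussian fit to the data.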

biotinyl-Ile-oxazolone = test: self-aminoacylation, catalytic enhancement (BIO) (fold over background); higher = more active; k-Seq, kA / k0A0; sequences stand for … in GGGAAUGGAUCCACAUCUACGAAUUC…UUCACUGCAGACUUGACGAAGCUG
How it was run: as §1

biotinyl-Met-oxazolone = test: self-aminoacylation, catalytic enhancement (BMO) (fold over background); higher = more active; k-Seq, kA / k0A0; sequences stand for … in GGGAAUGGAUCCACAUCUACGAAUUC…UUCACUGCAGACUUGACGAAGCUG
How it was run: as §1

biotinyl-Val-oxazolone = test: self-aminoacylation, catalytic enhancement (BVO) (fold over background); higher = more active; k-Seq, kA / k0A0; sequences stand for … in GGGAAUGGAUCCACAUCUACGAAUUC…UUCACUGCAGACUUGACGAAGCUG
How it was run: as §1

biotinyl-Leu-oxazolone = test: self-aminoacylation, catalytic enhancement (BLO) (fold over background); higher = more active; k-Seq, kA / k0A0; sequences stand for … in GGGAAUGGAUCCACAUCUACGAAUUC…UUCACUGCAGACUUGACGAAGCUG
How it was run: as §1

biotinyl-Trp-oxazolone = test: self-aminoacylation, catalytic enhancement (BWO) (fold over background); higher = more active; k-Seq, kA / k0A0; sequences stand for … in GGGAAUGGAUCCACAUCUACGAAUUC…UUCACUGCAGACUUGACGAAGCUG
How it was run: as §1

Sequence | self-aminoacylation (biotinyl-Phe-oxazolone) | self-aminoacylation (biotinyl-Ile-oxazolone) | self-aminoacylation (biotinyl-Met-oxazolone) | self-aminoacylation (biotinyl-Val-oxazolone) | self-aminoacylation (biotinyl-Leu-oxazolone) | self-aminoacylation (biotinyl-Trp-oxazolone)
AUUACCGUGGUCAUGGAGUGA [Fam2.1 aminoacylation ribozyme variant] | 12.2 | 2.27 | 3.21 | 2.37 | 3.43 | 3.69
AUUCACCUAGGUCAAUGGGUG [Fam2.2 aminoacylation ribozyme variant] | 6.93 | 1.42 | 1.75 | 1.38 | 2.23 | 1.65
CCCCAGUUCAAGCAAUCGGUC [Fam1B.1 aminoacylation ribozyme variant] | 7.95 | 2.48 | 2.77 | 2.65 | 3.86 | 7.44
AUCCACCUAGGUCAUGGGGUG [Fam2.2 aminoacylation ribozyme variant] | 56.5 | 3.54 | 5.64 | 3.77 | 6.65 | 5.9
AUGACCAUGGUCAUCGAGUGA [Fam2.1 aminoacylation ribozyme variant] | 22.1 | 4.29 | 7.94 | 4.28 | 8.09 | 9.59
AUUACCCUUGUCAUCCAGUGA [Fam2.1 aminoacylation ribozyme variant] | 9.92 | 2.21 | 3.41 | 2.25 | 3.44 | 3.96
AUUACCCUGGUCAUCGGGUUA [Fam2.1 aminoacylation ribozyme variant] | 218 | 12.3 | 38.5 | 17.8 | 42.4 | 45.8
AGACACCUAGGUCAUCGGGUG [Fam2.2 aminoacylation ribozyme variant] | 20.6 | 3.01 | 3.07 | 2.32 | 3.29 | 4.31
AUUACCCUUGACAUCGAGUGA [Fam2.1 aminoacylation ribozyme variant] | 50.8 | 4.31 | 10.8 | 5.25 | 11 | 13.5
AUUCACAUAGAUCAUCGGGUG [Fam2.2 aminoacylation ribozyme variant] | 35.2 | 2.93 | 4.43 | 2.8 | 5.04 | 3.84
AAGUUUGCUAAUAGUCGCUCG [Fam3.1 aminoacylation ribozyme variant] | 0.809 | 0.706 | 0.815 | 0.657 | 0.647 | 0.853
AUUACCCUGGUGAUUGAGUGA [Fam2.1 aminoacylation ribozyme variant] | 57.1 | 3.55 | 7.66 | 3.55 | 7.64 | 9.23
AUUCACCUACGUCAUCGCGUG [Fam2.2 aminoacylation ribozyme variant] | 83.5 | 5.7 | 10.3 | 5.93 | 14.1 | 9.63
ACACACUUCAAGCAAUCGGGC [Fam1B.1 aminoacylation ribozyme variant] | 2.02 | 2.48 | 2.81 | 2.73 | 2.34 | 3.29
AAGUUUGCUAAUACUCGCAAA [Fam3.1 aminoacylation ribozyme variant] | 1.26 | 1.2 | 1.22 | 1.05 | 0.837 | 1.71
AUACACCUAGGUCAUCGGGUG [Fam2.2 aminoacylation ribozyme variant] | 19.8 | 2.93 | 3.88 | 2.96 | 3.88 | 4.29
CUAAUGCAAACAAUCGGUCUG [Fam1A.1 aminoacylation ribozyme variant] | 0.853 | 0.612 | 0.631 | 0.577 | 0.55 | 0.581
AUUGACCUAGGUCUUCGGGUG [Fam2.2 aminoacylation ribozyme variant] | 19 | 3.85 | 4.29 | 3.97 | 4.19 | 4.79
AAGUUUGCAAAUAGUCGCAUG [Fam3.1 aminoacylation ribozyme variant] | 0.739 | 1.14 | 1.07 | 0.978 | 0.874 | 1.46
AUUCACCGAGGUCGUCGGGUG [Fam2.2 aminoacylation ribozyme variant] | 11.1 | 2.55 | 3.16 | 2.55 | 3.03 | 3
CCACACUUCAAGAAACCGGUC [Fam1B.1 aminoacylation ribozyme variant] | 0.875 | 0.998 | 0.798 | 0.824 | 1.17 | 0.931
CGACUUCAAACAAUCGGGCUG [Fam1A.1 aminoacylation ribozyme variant] | 10.4 | 2.45 | 2.05 | 2.73 | 2.34 | 12.7
AAGUUUGCUAAUAAUCGCAAA [Fam3.1 aminoacylation ribozyme variant] | 0.86 | 1.2 | 1.14 | 1.14 | 1.09 | 1.02
AUUACCCGGGUCUUCGAGUGA [Fam2.1 aminoacylation ribozyme variant] | 44.4 | 4.5 | 7.15 | 4.57 | 8.21 | 8.46
AUUUCCCUGGCCAUCGAGUGA [Fam2.1 aminoacylation ribozyme variant] | 11.7 | 1.72 | 2.45 | 1.95 | 2.78 | 3.3
CUACUUCGACCAAUCGGUCUG [Fam1A.1 aminoacylation ribozyme variant] | 0.674 | 0.854 | 0.856 | 0.908 | 0.979 | 0.379

Sequence | self-aminoacylation (biotinyl-Phe-oxazolone) | self-aminoacylation (biotinyl-Ile-oxazolone) | self-aminoacylation (biotinyl-Met-oxazolone) | self-aminoacylation (biotinyl-Val-oxazolone) | self-aminoacylation (biotinyl-Leu-oxazolone) | self-aminoacylation (biotinyl-Trp-oxazolone)
CUUACCCUGGUCAUCCAGUGA [Fam2.1 aminoacylation ribozyme variant] | 16.9 | 2.37 | 4.04 | 2.77 | 4.63 | 5.03
CUACUUCAAACAAUCGUUUUG [Fam1A.1 aminoacylation ribozyme variant] | 0.98 | 0.758 | 0.603 | 0.669 | 0.568 | 0.576
AAGUUUGCUAAUUGUCCCAAG [Fam3.1 aminoacylation ribozyme variant] | 2.16 | 1.28 | 1.15 | 1.21 | 0.999 | 1.01
AUUUACCCAGGUCAUCGGGUG [Fam2.2 aminoacylation ribozyme variant] | 44.3 | 3.28 | 5.07 | 3.55 | 6.46 | 3.66
GCACACUUCAAGCAAUCGGUG [Fam1B.1 aminoacylation ribozyme variant] | 49.1 | 6.23 | 8.09 | 5.92 | 10.3 | 10.1
AUUACCCUGGUGAUCGAGUCA [Fam2.1 aminoacylation ribozyme variant] | 0.521 | 0.912 | 0.978 | 0.859 | 0.741 | 0.415
AUUACCCUGGUCUUCGAAUGA [Fam2.1 aminoacylation ribozyme variant] | 0.408 | 0.649 | 0.746 | 0.728 | 0.694 | 0.642
CCAUACUUCAAGCAAUCGGGC [Fam1B.1 aminoacylation ribozyme variant] | 2.06 | 1.95 | 1.53 | 1.73 | 1.61 | 1.15
AUUCACCUAAGUCACCGGGUG [Fam2.2 aminoacylation ribozyme variant] | 53.8 | 4.72 | 7.03 | 4.88 | 8.36 | 5.67
AUUUACCAAGGUCAUCGGGUG [Fam2.2 aminoacylation ribozyme variant] | 77.2 | 4.61 | 7.36 | 4.6 | 9.69 | 7.11
CCCCACUUCAAGCAAUGGGUC [Fam1B.1 aminoacylation ribozyme variant] | 1.88 | 1.32 | 0.959 | 1.67 | 0.835 | 1.96
AAGUCAGCUAAUAGUCGCAAG [Fam3.1 aminoacylation ribozyme variant] | 5.28 | 1.94 | 1.83 | 2 | 2.22 | 3.06
AAGUUUGCUAAUAGUCUUAAG [Fam3.1 aminoacylation ribozyme variant] | 25.7 | 1.16 | 1.24 | 1.11 | 1.11 | 6.3
CGACACUUCAAGCAAUCGAUC [Fam1B.1 aminoacylation ribozyme variant] | 0.965 | 0.672 | 0.582 | 0.727 | 0.611 | 0.715
CUACUUCAGACAAUCCGUCUG [Fam1A.1 aminoacylation ribozyme variant] | 1.86 | 0.902 | 0.675 | 0.826 | 0.963 | 1.23
AUUCAGGUAGGUCAUCGGGUG [Fam2.2 aminoacylation ribozyme variant] | 30.7 | 3.68 | 4.59 | 4.23 | 5.83 | 5.12
CUACUUCAACCAAUAGGUCUG [Fam1A.1 aminoacylation ribozyme variant] | 1.05 | 0.947 | 0.703 | 0.777 | 0.743 | 0.753
CUACUUCAAACAUACGGUCUG [Fam1A.1 aminoacylation ribozyme variant] | 0.561 | 0.776 | 0.565 | 0.763 | 0.662 | 0.556
AUUAUCCUGGUCAUGGAGUGA [Fam2.1 aminoacylation ribozyme variant] | 13.6 | 2.67 | 4.22 | 2.6 | 4.6 | 5.21
AUUACCCUGGUCAACAAGUGA [Fam2.1 aminoacylation ribozyme variant] | 23.2 | 3.48 | 7.83 | 3.85 | 6.6 | 8.34
AUUCACCUAGGUCAUCGGCCG [Fam2.2 aminoacylation ribozyme variant] | 16.6 | 3.35 | 4.04 | 3.45 | 4.25 | 5.29
AUUCACCUCCGUCAUCGGGUG [Fam2.2 aminoacylation ribozyme variant] | 70.3 | 5.62 | 8.59 | 4.91 | 10.8 | 8.32
GUUCCCCUGGUCAUCGAGUGA [Fam2.1 aminoacylation ribozyme variant] | 43.4 | 3.35 | 5.84 | 3.82 | 6.48 | 7.5
UCACACUUUAAGCAAUCGGUC [Fam1B.1 aminoacylation ribozyme variant] | 0.841 | 0.869 | 0.694 | 0.857 | 0.791 | 0.764
AUUACUGUGGUCAUCGAGUGA [Fam2.1 aminoacylation ribozyme variant] | 14.1 | 2.65 | 4.65 | 2.56 | 4.25 | 5.16
